In paper PMC4895335:

Molecular target: T1, Ms4022 (TetR family regulator) (Mycobacterium smegmatis mc2 155) (UniProt A0QZH0)
T1 sequence: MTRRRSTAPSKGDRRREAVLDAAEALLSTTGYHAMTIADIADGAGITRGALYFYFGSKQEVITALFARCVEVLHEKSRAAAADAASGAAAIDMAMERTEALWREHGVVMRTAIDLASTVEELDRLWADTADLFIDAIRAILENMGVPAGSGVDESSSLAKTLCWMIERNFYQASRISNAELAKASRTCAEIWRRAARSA
Assay: EMSA
Settings: EMSA: 50 mM Tris-HCl pH 7.5, 10 mM MgCl2, 50 mM NaCl, 4 C 30 min, 5% native PAGE in 0.5x TBE at room temperature; footprinting: binding as in EMSA, DNase I at …

Row | Sequence | binding
1 | ACGCCGATACTTGACGGAGTGCTTATTTTTTTCGACACTGTGCTTATTGAGATGGCGGGGCATGGAGGCAGCGATGCGAACAATCTTGATCGCCGGAACGAGCGGCGACTTCCGGCGAGCATTCGCCGAGGCGGTTGCGCCTTGGCGTGCACACAGTCGCATCCCCGACCTCGCCGACGCCGCTGTCGGCCCATCCGGGAAGGACCATCCGTGACGAAATCCA (double strand) [Ms4022p s1] | binds
2 | GCCTTACGGCACAACGACTTCGGGCTGGCGGCCCGGCGTCGTCGCATCGCGCACGTCCGGTCGGACGCCCCCAGTCGGCCCCTCCGGACTAGGCGTCCACGCCGATACTTGACGGAGTGCTTATTTTTTTCGACACTGTGCTTATTGAGATGGCGGGGCATGGAGGCAGCGATGCGAACAATCTTGATCGCCGGAACGAGCGGCGACTTCCGGCGAGCATTCGCCGAGGCGGTT (double strand) [Ms4022p s2] | binds
3 | GTCGATCTCCGTCGGGTCAACGGGCGAACTTCCCTGTCACGGCAGTCAGGTTAGCACGAATCCACACAGTGCTGATTTTTATCAGCTTGTTGTCGGCGACGCGGTCACCCGTTTCGGTCGCGAGGTGTCTGATCGGTCGCCATCGGTTATGGCCTTACGGCACAACGACTTCGGGCTGGCGGCCCGGCGTCGTCGCATCGCGCACGTCCGGTCGGACGCCCCCAGTCGGCCCCTCCGGACTAGGCGTCCACGCCGATACTTGACGGAGT (double strand) [Ms4022p s3] | binds
